Data published in the DeepSol protein solubility set.

Test: soluble on expression in E. coli; label from the status in PepcDB or PDB records

Row | Sequence | soluble on expression in E. coli
1 | MSLLTLLRPATVQDCKDIFKVHLHSVQYTCILSYNEHALKVWEGLLNTESYLPTISDPDKALWVAEYKGNIQGFFQIDCQEAQLDALYVHPLFHNLGLGTALLHQAETIAHKSGLSFLKLYASLNSVPFYLLNRYESLGSAVLQLDPSIKIKCELMRKHL | not soluble
2 | MVWQREKLLQVNEIGYRDIDAGVPMQRDTLFRIASMTKPVTVAAAMSLVDEGKLALRDPITRWAPELCKVAVLDDAAGPLDRTHPARRAILIEDLLTHTSGLAYGFSVSGPISRAYQRLPFGQGPDVWLAALATLPLVHQPGDRVTYSHAIDVLGVIVSRIEDAPLYQIIDERVLGPAGMTDTGFYVSADAQRRAATMYRLDEQDRLRHDVMGPPHVTPPSFCNAGGGLWSTADDYLRFVRMLLGDGTVDGVRVLSPESVRLMRTDRLTDEQKRHSFLGAPFWVGRGFGLNLSVVTDPAKSRPLFGPGGLGTFSWPGAYGTWWQADPSADLILLYLIQHCPDLSVDAAAAVAGNPSLAKLRTAQPKFVRRTYRALGL | not soluble
3 | MTERFDCHHCNESLFGKKYILREESPYCVVCFETLFANTCEECGKPIGCDCKDLSYKDRHWHEACFHCSQCRNSLVDKPFAAKEDQLLCTDCYSNEYSSKCQECKKTIMPGTRKMEYKGSSWHETCFICHRCQQPIGTKSFIPKDNQNFCVPCYEKQHAMQCVQCKKPITTGGVTYREQPWHKECFVCTACRKQLSGQRFTARDDFAYCLNCFCDLYAKKCAGCTNPISGLGGTKYISFEERQWHNDCFNCKKCSLSLVGRGFLTERDDILCPDCGKDI | soluble
4 | VAVTCRVLKLARQPYYRWRAHPVTDAEIVEAYRANALFDAHKDDPEFGYRYLVEEARDAGEPMAERTAWRICSQQGLWSVFGKKRGKNGKPGPPVHDDLVERDFTASEPNALWLSDITEHRTGEGKLYLCAIKDVFSNRIVGYSIDSRMKSRLATAALSSAVARRGDVDGCILHSDRGSQFRSRKFVHALHHHGMVGSMGRVGAAGDNAAMESFFSLLQKNVLDRRRWDTREQLRIAIVIWIERTYHRRRRQLTLGRLTPIEFEAIMTTPASQAA | soluble
5 | SKQDASRNAAYTVDCEDYVHVVEFNPFENGDSGNLIAYGGNNYVVIGTCTFQEEEADVEGIQYKTLRTFHHGVRVDGIAWSPETRLDSLPPVIKFCTSAADMKIRLFTSDLQDKNEYKVLEGHTDFINGLVFDPKEGQEIASVSDDHTCRIWNLEGVQTAHFVLHSPGMSVCWHPEETFKLMVAEKNGTIRFYDLLAQQAILSLESEQVPLMSAHWCLKNTFKVGAVAGNDWLIWDITRSSYPQNKRPVHMDRACLFRWSTISENLFATTGYPGKMASQFQIHHLGHPQPILMGSVAVGSGLSWHRTLPLCVIGGDHKLLFWVTEV | soluble
6 | MGSDKIHHHHHHMRIGLFTDTYFPQVSGVSTSIRTLKEGLEKEGHEVYIFTTTDRNVKRFEDPTIIRLPSVPFISFTDRRVVYRGLISAYRIAKDYELDIIHTQTEFSLGLLGKLVAKALRIPVVHTYHTQYEDYVGYIAKGKLIKPSMVKYIMRTYLSDLDGVICPSRIVLNLLDGYGVKIPKQVIPTGIPVENYRREDISEETIKNLRTELGLADNDTMLLSLSRVSFEKNIQAILMHLSAVVDENPHVKLVIVGDGPYLSDLKELVHSLELENSVIFTGMVEHSQVAIYYKACDFFISASTSETQGLTYIESLASGRPIIAQSNPYLDDVISDKMFGTLYKKESDLADAILDAIAETPKMTQEAYEQKLYEISAENFSKSVYAFYLDFLISQKASVKEKVSLTIGNKDSHSTLRFVRKAVYLPKKVFTFTGRASKKVVKAPKRRISSIRDFLD | not soluble
7 | MARSQLSAAGEQHVIQLNQQGGKNLFCFPPISGFGIYFKDLALQLNHKAAVYGFHFIEEDSRIEQYVSRITEIQPEGPYVLLGYSAGGNLAFEVVQAMEQKGLEVSDFIIVDAYKKDQSITADTENDDSAAYLPEAVRETVMQKKRCYQEYWAQLINEGRIKSNIHFIEAGIQTETSGAMVLQKWQDAAEEGYAEYTGYGAHKDMLEGEFAEKNANIILNILDKINSDQKVLPNKHGSHHHHHH | soluble
8 | MGSDKIHHHHHHMHCGIDYGTSNSSLGIVKDGKVVQAELERNSVYLPSAIYRAFPEHELNDDIASRSIRQQLGSAQGLLYGSEAIEAYVRHPGDGLFMKSPKVFLGSDLSKDQMDFFQIVIAKMMTHILERAREFYGQELRQAVIGRPIRYHGIRGEEGDKQALAIMEHAAAGAGLEEVVFMYEPLAAALDYEQCLDRDEVLLVVDVGGGTTDCSVVKVGPSYRDKRERSDDLLAYSGNRIGGVDLDINLGWHTIMPLFGRGTDELHNKAFDAITVNSIPSQQAFYSRFEMPVHAQADTVRERLYRVWLDKLSSHLVRSAELAKIELSRRTSHVLELGYVEDGLEVHVSREDFRQAIARSAEKIRQVIDDARQASASRPDKIYLTGGSAVSPVIQQVIREVVGDAVPFVSGNMHGSVACGLSVFANRHFA | not soluble
9 | AKIGLFFGSNTGKTRKVAKSIKKRFDDETMSDALNVNRVSAEDFAQYQFLILGTPTLGEGELPGLSSDAENESWEEFLPKIEGLDFSGKTVALFGLGDQVGYPENYLDALGELYSFFKDRGAKIVGSWSTDGYEFESSEAVVDGKFVGLALDLDNQSGKTDERVAAWLAQIAPEFGLSL | soluble
10 | MGSDKIHHHHHHMEGKKTTQEEYQKCVNAVVDYINLHLGEEIDLKSLARISHFSPFYFHRIMKAFLGEPIGTFIVRTRTEAAARLLRYSSTSISDIAYRIGYASPSSFSKIFKQMYGISPTEYRNNKNYVIMKPAIIKPDLELKKEIRELPQRNVIYIRLFGDYKLNDYAGTWMHLIQFVKEQNLPMGDPSPLCIYHDDPKVTPTDKLRTDVCMLLPSNARPKGNVGFKQLPAGRYATFLYKGSYDQLQAVYDTIYGKYLPEMECTLSDEPSAERYLNDPSCTPPEELLTEIYIPIR | not soluble
11 | MAHHHHHHMTGADPDMLGSSAPNRPALMEPSVAPSPTSSPPATNAHANGSNSNGAGNVPLSQSTWRDSAAGSQPHGHGMPSTVRAADAPGVTEEKQAEGAFGADVHYNPATEHDFAVRGGLDGGAEGEHNSAKKIRLNNVSHFKNVPSRLNVQRQSTEADLVPCTYCGRKFLPGRVQKHEDCCIDRSKPLTARKGGALPARPSTGAATPRLAKPTPAAPAVESAATGKAKFCGGCGCKKSEPDQKFCTECGHKL | soluble
12 | MRILEEDLKNSTYRIRIESLDDLWYLRNILSEGDEVSAITFRRVEESADVQRSRERERIPITIRLKVEKIEFQDFDNRLRILGTVIEGPEDTKGKHQSITVTVDSEISITKEWDDQHIDLLKEATDEKYVTVYTAVAMDEDEAQIFLIHPYGIQQVGTVYSGRSGKYAEGNYSEASYFDQIVNALKNYSNSIIILGPGFARDRFARYCAQRGVNVIGSFPANRTDSGAVYEFITSADGAKLLSNERIARDKEIVDEFLVAVKKDMGVYGRDQTESALQMGALSDLIITDEMFRTEDGRRSLSIAQTVGTRIHIVSVSNDPGQIVKKFGGFAGILRYRVQLEHHHHHH | soluble
13 | VSRSRKEEERQEQSARLLSKLRRFDDLDRNWPIKILIQGLRFPIRSEQRLTEYFGCSNSYEISLRDIMNFLITDYEKIPLDLYEVCPAYKQKQIGRKTYSAIVNHLSEQGLGSTFRCEWNMRLKKLIRFMEKGWEYIPDSFRQYEYRA | soluble
14 | YRQSQSRAARLRLLVDTGQELIQLPPEAMRKCVLQRACAFVAMDHGLLLEWGADNGVQTTARHGSKERLSTLETTADPLAIGPQWLERPGTHLPCVLLLPLRGADEGSFGTLVLANSVAISAPDGEDIESLQLLATLLAAHLENNRLLEALVARDRT | soluble
15 | MSGRPFLLIHTFKDISKFREGDRDYSDIEVRYNIPWRLRIFKKEGFLGLKLYCEKEECIETKKWTFKTKFTMKLVAVDLPSSQSDFNNSFLLKHTFNNISKFVERDSDYSDAEDHYNIAWKIRILKYEECLGIYLDCQKEIYEGRKWSIKCEFKSSLISASGKFYSVQYTDVFDNRDSSMGSSTFISWIDMEKEYVTNDDCIDVTIHAKIISITDEPCEMKTFALSHTIKNMSSIREGEDYDTDTQYRFNIPWSLKILNRNEFSGLFIRCEKQLCKSRKWSIETEYQLKIVSPNGRSELFGGTYVFDNPNIYGWHIIRWSSLEDRYIVNDTLTVEAQVTIVKMTGIEDETPIEKPSGIVIPVGNQEFSLERWMEMAFDH | not soluble
16 | MGSDKIHHHHHHTQRWLSGNISNFQYLMHLNTLAGRCYNDLSQYPIFPWVLADYTSSQLDFNNISTFRDFSKPMGAQSPDRLEQFLKRFREWDDPSGETPPYMYGTHYSSAMIVVSYLVRLEPFTQQFLSLQGGHFDLADRMFHSVGDAWTSASRNNMADVKELIPEFFTLPEMFTNTNHFDLGVKQNGIHVNDVLLPAWCHGDPREFIRLHRQALESDYVSSHLHEWIDLIFGYKQNGEEAVKNSNLFHHLFYEGSVDFERIDDPLTRNATIGFVNNFGQIPTQLFKKPHPQK | not soluble
17 | MYHHGFHYYSTNNSHSYSRTRNPPKSWNLGPHELGSSTDPENRAMQESIINSVSEQTLQSWIDFREEINKKNLLLRNKLKIPSEKIDDKYHTFPEKKQSDYADAEIYAGSDASQPSRNEYDRSKYVLNRKVRCAPTEIITDSSQSPGASPSSDQIFIDDSQPSTTKRRWVISEPDDNSDKHVSSSENHQQREKIISPTEKTLQKSTSSNSSPTLKLFVTVPSSSNQECILHKYGHCIAPQICPFAHDGVVRKLEKKTVTAPFWQRKLPNISLCPGYPTLKCWDHKCGKRHILYPSDNI | not soluble
18 | MPLVNSHIVEECLPFTSLRLDPEDINLSMGAGYVPDAEIQAISDALETEIAGICTPRFLYALFDAEPAGTCEVGVNGISLKTGSVITPYLKDAAGYVLFVATAGYEFEAFQHRIGSQGDILREFLLDAYGSAIAEAVVREVCRKVESRMFPLGYGVSHPYSPGYCGWHVTQQQLLFSCLPEFPCGVRLSDSSLMSPIKSVSGIIAYGPCIVKRKYGCELCGKADCYKNRNKLNRLEHHHHHH | soluble
19 | MNFDLFADEASRRWTETLAPGAVILRGHAYDDAPALLAALQTVIACAPLRNMITPGGFVMSVAMSNCGQLGWVTDEQGYRYTSHDPLSGEAWPAMPEAFSLLAKQAASEAGFADFEPDACLINRYDVGTRMSLHQDKNERDFHQPIVSVSLGLSATFLFGGMVRSDKAQRVPLTHGDVVVWGGESRLYFHGILPLKSGAVPEGMPDECRFNLTFRKAGLEHHHHHH | soluble
20 | MILLKSEHGGKRKEMRQDDLMGPNHFSLRIMYKIIIYTYPVSLYAVKELNLSKTFSISALGILNSNSNRSPAKKQTFFSACVAKSYSSFFISICILDLASHL | soluble
21 | MGSDKIHHHHHHMQDLNDIALFAAVVKHNGFSAAARDLNVPKSKLSKHVARLEEQLGVRLLERSTRKLRMTEVGRIFYEHAQGLLDGVAAAEAEIAAVRAEPTGVVRLACPIGFTPMLADILPAFHRRYPGVRLLITASNRRIDLIEERIDVALRARDQLDTDSQLIVRKFGEVRQRLAASPTLLARLGEITTDNLSQMPTLSMNEQHPNDVWRLVHATGGAIEIAHRPVVGCSDFLILERAAIEGMGIALLPDHICERAFRTGALVPVLPEWTSGNVMVHLVFPSRHGLLPATRALIDFLAENLIKALERCREVDPRPAASFEI | not soluble
